One substance from article doi:10.1101/2021.06.14.448436 can be followed below.

Broadly, the Kd is the concentration at which binding is half-saturated.

The target of this assay is human angiotensin-converting enzyme 2 (human) (UniProt Q9BYF1). Description: SPR. For orientation: In SPR one partner is held on a chip, and binding of the other changes the refractive index at the surface.
UniProt Q9BYF1, sequence (Q9BYF1 18-805): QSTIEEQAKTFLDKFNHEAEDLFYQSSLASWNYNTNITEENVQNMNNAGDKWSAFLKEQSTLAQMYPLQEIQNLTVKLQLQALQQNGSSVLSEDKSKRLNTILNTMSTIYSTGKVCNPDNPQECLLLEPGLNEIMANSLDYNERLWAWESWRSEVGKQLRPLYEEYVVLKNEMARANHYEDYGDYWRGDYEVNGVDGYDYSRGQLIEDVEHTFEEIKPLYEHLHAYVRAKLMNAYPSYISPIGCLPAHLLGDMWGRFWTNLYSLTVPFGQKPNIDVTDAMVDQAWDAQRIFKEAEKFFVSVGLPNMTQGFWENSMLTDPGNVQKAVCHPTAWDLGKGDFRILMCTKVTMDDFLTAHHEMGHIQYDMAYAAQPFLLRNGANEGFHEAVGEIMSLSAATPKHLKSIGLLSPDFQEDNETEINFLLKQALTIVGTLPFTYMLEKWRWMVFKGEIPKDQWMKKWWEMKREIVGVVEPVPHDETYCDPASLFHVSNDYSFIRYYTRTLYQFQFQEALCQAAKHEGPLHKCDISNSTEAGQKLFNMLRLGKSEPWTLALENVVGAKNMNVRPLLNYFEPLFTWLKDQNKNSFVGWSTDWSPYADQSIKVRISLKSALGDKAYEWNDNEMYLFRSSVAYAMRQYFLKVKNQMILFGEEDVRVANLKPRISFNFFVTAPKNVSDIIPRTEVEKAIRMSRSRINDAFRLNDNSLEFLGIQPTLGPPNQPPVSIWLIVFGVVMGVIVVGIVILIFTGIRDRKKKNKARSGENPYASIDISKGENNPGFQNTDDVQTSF

In turn, “SARS-CoV-2 trimeric Spike protein, wild-type, prefusion-stabilised” yielded a Kd of 6.4 nM.
